Legend:
[1] = molecular target: T1, full-length GRK2 (endogenous, mouse heart) (mouse (endogenous, in the hearts of the …, UniProt Q99MK8 1-689)); test: anti-FLAG immunoprecipitation from cardiac lysates of TgβARKnt mice 4 weeks after Sham or TAC, western blot
T1 construct: GRK2 in the heart'; also called βARK1
T1 sequence (looked up): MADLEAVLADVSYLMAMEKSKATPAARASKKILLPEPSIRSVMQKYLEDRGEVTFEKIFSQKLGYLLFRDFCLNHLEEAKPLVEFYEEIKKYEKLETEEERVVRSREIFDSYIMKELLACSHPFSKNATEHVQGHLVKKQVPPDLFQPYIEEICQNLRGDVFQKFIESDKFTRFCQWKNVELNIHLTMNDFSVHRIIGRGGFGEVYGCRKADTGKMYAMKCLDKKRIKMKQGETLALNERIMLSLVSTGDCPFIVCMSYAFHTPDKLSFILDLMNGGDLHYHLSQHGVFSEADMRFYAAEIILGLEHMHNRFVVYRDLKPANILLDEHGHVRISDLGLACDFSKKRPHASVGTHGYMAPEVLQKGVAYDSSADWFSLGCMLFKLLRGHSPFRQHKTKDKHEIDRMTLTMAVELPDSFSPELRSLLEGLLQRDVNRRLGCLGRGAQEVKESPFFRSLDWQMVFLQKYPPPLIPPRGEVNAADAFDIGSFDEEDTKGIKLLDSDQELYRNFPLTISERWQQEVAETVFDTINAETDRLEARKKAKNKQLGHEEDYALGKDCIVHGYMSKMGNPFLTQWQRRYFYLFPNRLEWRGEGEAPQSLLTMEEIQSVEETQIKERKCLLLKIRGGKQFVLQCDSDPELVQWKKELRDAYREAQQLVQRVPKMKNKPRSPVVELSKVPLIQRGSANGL

[2] = molecular target: T2, endogenous Gαq in the mouse heart (mouse (endogenous, in the hearts of the …, UniProt P21279 1-359)); test: anti-FLAG immunoprecipitation from cardiac lysates of TgβARKnt mice 4 weeks after Sham or TAC, western blot with anti-Gαq antibody
T2 construct: Endogenous protein in cardiac lysates, detected by western blot with anti-Gαq antibody; also called Gq; Gaq
T2 sequence (looked up): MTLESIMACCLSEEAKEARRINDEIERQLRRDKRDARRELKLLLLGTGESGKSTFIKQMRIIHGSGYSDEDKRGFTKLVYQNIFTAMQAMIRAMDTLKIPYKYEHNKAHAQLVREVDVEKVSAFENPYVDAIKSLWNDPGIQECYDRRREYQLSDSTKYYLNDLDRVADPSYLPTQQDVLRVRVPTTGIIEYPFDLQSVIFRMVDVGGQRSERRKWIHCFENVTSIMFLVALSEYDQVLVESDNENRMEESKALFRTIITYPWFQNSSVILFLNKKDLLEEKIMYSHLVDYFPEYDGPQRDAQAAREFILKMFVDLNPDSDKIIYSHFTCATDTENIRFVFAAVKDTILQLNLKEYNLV

B1: flag-tagged βARKnt (bovine GRK2 residues 50-145 with a carboxy-terminal flag-tag) (peptide)
chain: RGEVTFEKIFSQKLGYLLFRDFCLKHLEEAKPLVEFYEEIKKYEKLETEEERLVCSREIFDTYIMKELLACSHPFSKSAIEHVQGHLVKKQVPPDL
notes: An initiator Met is not described; also called βARKnt peptide; βARKnt-flag; not shown: carboxy-terminal flag-tag
B1: no binding [1]; no binding [2].

From patent US20190134223A1 (TEMPLE UNIVERSITY OF THE COMMONWEALTH SYSTEM OF HIGHER …, published 2019)
